From the supplement of paper PMC10567573

B1: NP_015628.1 (parent)
chain: EQRNSRWNTVLRAVKAKTHHLEP
B2: MLH1 (parent)
chain: YNIATRRKALKNPSEEYGKILEVV

Variants of: B1
Assay: protein stability index of a GFP-peptide fusion (GPS, HEK-293T) (PSI 1-6); higher = more stable
Conditions: c terminus: native

Protein stability index: each site, then its substitutions
V14: L 3.05; F 2.87; I 3.37; P 2.73; W 3.26; G 3.31; D 2.89; R 2.96; A 3.23; M 3.07; N 3.1; C 2.73; Q 2.85; S 3.28; K 3.44; Y 2.87; T 2.97; E 2.45; H 3.06
T9: V 2.74; C 3; Q 3; Y 2.23; D 2.29; S 3.31; N 3.3; A 3.31; P 4.6; I 3.02; W 2.3; L 2.91; G 3.94; E 2.38; R 4.1; M 3.04; F 1.99; H 2.38
A13: W 2.93; Q 2.7; K 2.87; L 2.69; G 2.89; I 2.66; F 2.52; N 3.06; Y 3.1; T 2.97; C 3.08; S 3; E 2.24; D 2.78; H 2.94; M 3.28; R 2.57
R3: K 2.79; A 3.25; W 2.7; E 3.33; H 2.99; P 3.25; V 2.99; F 3.35; D 3.97; I 3.09; S 3.47; N 3.07; C 3.3; Q 2.71; Y 3.7; T 2.9; L 3.23; M 3.25; G 3.58
E1: F 2.52; V 2.65; P 2.74; Q 3.13; K 2.12; C 2.79; T 2.27; N 2.91; R 3.15; M 2.95; G 2.9; A 2.66; I 2.79; L 2.87; S 2.4; H 2.91; W 2.94; Y 3.33
V10: M 2.89; E 3.92; Y 2.53; N 3.76; W 2.78; F 2.74; S 3.63; H 2.81; A 3.52; T 3.15; I 2.92; K 3.15; C 3.99; Q 3.25; R 2.77; P 4.13; D 4.65
R12: I 2.46; S 2.57; G 2.78; H 2.98; Q 2.71; T 3.07; E 2.79; W 2.67; D 2.44; Y 2.5; N 3.21; P 3.05; C 2.74; V 2.47; A 2.77; M 2.8; L 2.76; K 2.97; F 2.41
W7: F 4.71; K 5.46; H 5.21; C 5.2; L 4.66; V 4.88; R 5.19; T 5.14; N 4.83; D 5.12; M 5.33; G 5.71; A 5.18; S 5.32
K17: S 2.85; L 2.62; E 2.77; D 3.1; H 2.52; C 2.61; R 3.33; T 2.84; Q 2.67; A 2.77; V 2.79; I 2.61; M 2.91; P 2.96; Y 2.82; N 2.69; W 2.62; F 2.75
Q2: H 3.12; D 3.43; M 3.12; L 2.84; N 2.88; W 2.78; T 2.38; R 2.9; I 3.24; K 2.71; C 2.93; P 3.06; E 3.55; V 2.76; S 2.87; F 3.02; Y 2.97; G 2.74; A 2.98
L11: I 2.51; C 2.47; E 4.36; T 3.12; G 4.32; Q 4.63; A 3.95; V 2.5; S 4.1; F 3.9; N 4.51; H 4.49; M 3.19; D 4.52; W 3.69; K 4.86; R 5.15; Y 3.5; P 5.12
N8: E 1.92; L 2.29; P 3.65; G 2.49; F 2.8; H 2.64; D 2.52; T 2.16; Q 2.06; I 2.6; M 2.15; Y 2.61; S 2.28; C 2.01; R 2.53; V 3; A 1.94; W 2.78
K15: T 2.99; H 3.22; G 3.31; E 3.25; W 3.24; N 3.17; L 3.07; D 3.21; F 2.9; V 3.11; Q 3.05; C 3.1; S 3.26; I 3.1; M 3.33; A 3.24; P 3.14; Y 3.25; R 3.08
T18: A 2.91; I 3.12; E 3.26; K 2.97; C 2.5; N 2.82; G 3.12; M 2.83; P 2.93; L 3.13; F 3.33; H 2.76; D 3.14
N4: S 3.05; P 2.67; E 3.37; W 2.4; T 3.23; Y 3.16; H 2.48; G 3.71; F 3.17; R 2.96; A 2.5; V 2.96; K 2.67; Q 3.1; D 3.22; L 2.87; C 2.73; M 2.94; I 2.94
R6: Q 2.62; D 2.7; A 2.85; P 2.51; I 3.4; H 3.45; V 3.23; N 2.67; Y 2.94; C 2.45; K 2.67; E 3.39; F 3.03; L 2.97; T 2.48; W 2.07; S 2.4; G 3.11; M 2.72
S5: W 2.46; K 2.28; P 2.78; F 2.61; V 2.43; C 2.46; Y 2.38; R 2.42; T 2.93; A 2.67; M 2.4; D 2.96; E 2.91; L 2.48; Q 2.67; G 3.32; H 2.62
A16: I 2.73; D 2.82; N 2.35; V 2.95; T 2.78; W 2.92; Y 2.78; S 3.24; H 2.98; Q 2.99; G 2.77; M 2.9; E 2.37; R 2.77; P 2.78; F 3.02

Variants of: B2
Assay: as above
Conditions: c terminus: a fixed tail appended

Protein stability index: each site, then its substitutions
V23: S 3.66; T 2.97; Y 2.5
V24: N 3.64; L 2.45; P 4.07; E 3.98; Q 3.52; C 3.37; D 3.66; K 3.77; F 2.98; H 3.11; G 3.32; W 1.96; A 3.79
